# Source: the supplement of paper PMC10567573
# B1: SLC2A12 (parent)
# chain: TRIMIGLTLVFFVQITGQPNILFY
# B2: ZNF193 (parent)
# chain: QKRYHCKECGKVFSQSAGLIQHQR
# Variants of: B1
# Assay: protein stability index of a GFP-peptide fusion (GPS, HEK-293T) (PSI 1-6); higher = more stable
# Conditions: c terminus: a fixed tail appended
# 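Further: lentivirally expressed fusions sorted by FACS into six bins by GFP to DsRed ratio, PSI derived from sequencing read proportions per bin multiplied by bin number.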
row,Variant,protein stability index
1,R2K,2.82
2,R2M,4.67
3,R2A,3.31
4,R2S,2.95
5,R2D,3.39
6,R2N,3.48
7,R2T,2.27
8,R2H,2.17
9,R2I,2.93
10,R2W,3.62
11,R2L,2.57
12,R2C,1.74
13,R2Q,4
14,R2Y,2.27
15,R2G,3.53
16,T1A,2.48
17,T1G,3.81
18,T1W,3.23
19,T1M,1.44
20,T1I,3.72
21,T1Q,2.42
22,T1S,3.37
23,T1P,2.26
24,T1K,2.57
25,T1Y,5.08
26,I15P,3.74

row,Variant,protein stability index
1,I15G,1.73
2,I15C,3.47
3,I15S,2.98
4,I15L,2.74
5,I15R,2.93
6,I15A,1.54
7,I15Y,3.97
8,I15Q,3.39
9,I15M,2.5
10,I15F,3.46
11,I15T,3.01
12,I15H,2
13,G17L,2.86
14,G17Q,2.8
15,G17A,2.96
16,G17M,3.31
17,G17R,3.35
18,G17D,3.49
19,G17P,3.68
20,G17Y,3.48
21,G17K,2.58
22,G17H,2.87
23,G17T,2.58
24,G17W,2.11
25,G17V,2
26,G17N,3.03

row,Variant,protein stability index
1,L9G,2.8
2,L9M,2.58
3,L9N,2.69
4,L9I,3.09
5,L9R,3.25
6,L9A,3.04
7,L9W,2.24
8,L9D,3.04
9,L9Q,1.7
10,L9F,5.04
11,L9C,2.63
12,V13D,2.46
13,V13Y,3.14
14,V13R,2.87
15,V13P,3.01
16,V13A,3.24
17,V13T,3.18
18,V13Q,2.33
19,V13N,3.86
20,V13G,3.16
21,V13E,2.15
22,V13M,3.17
23,V13H,3.1
24,V13L,2.69
25,V13I,3.48
26,V13W,2.85

row,Variant,protein stability index
1,V13S,2.7
2,V13K,2.19
3,I3G,2.12
4,I3N,2.12
5,I3T,1.84
6,I3K,2.94
7,I3C,2.21
8,I3M,3.1
9,I3A,2.59
10,I3P,2.49
11,I3R,2.86
12,I3S,3.14
13,I3H,2.87
14,I3L,2.85
15,I3Y,3.58
16,I3F,2.81
17,Q18D,2.16
18,Q18H,3.08
19,Q18A,3.12
20,Q18E,4.17
21,Q18M,3.21
22,Q18G,3.24
23,Q18C,2.86
24,Q18T,2.7
25,Q18S,3.39
26,Q18K,3.22

row,Variant,protein stability index
1,Q18Y,3.56
2,Q18N,2.47
3,Q18W,3.71
4,Q18V,4.47
5,Q18R,3.77
6,Q18P,3.94
7,T8Y,2.64
8,T8D,2.01
9,T8M,3.52
10,T8N,3.93
11,T8P,4.51
12,T8S,2.71
13,T8F,2.26
14,T8H,4.12
15,T8V,3.33
16,T8C,3.82
17,T8G,2.77
18,T8I,2.72
19,T8Q,2.43
20,T8L,3.33
21,V10L,2.4
22,V10E,3.41
23,V10Y,2.56
24,V10C,2.69
25,V10T,3.36
26,V10K,3.44

row,Variant,protein stability index
1,V10G,3.27
2,V10M,3.53
3,V10A,3.99
4,V10R,2.5
5,V10F,3.06
6,V10P,2.51
7,V10H,3.39
8,V10W,2.58
9,V10N,3.65
10,V10D,1.78
11,L7Q,1.72
12,L7P,2.96
13,L7Y,4.24
14,L7W,2.84
15,L7A,3.65
16,L7I,2.63
17,L7N,2.78
18,L7R,2.42
19,L7H,3.31
20,L7V,2.5
21,L7C,2.22
22,L7S,3.54
23,L7K,1.8
24,L7D,2.9
25,L7F,2.41
26,L7E,2.62

row,Variant,protein stability index
1,F11P,2.09
2,F11S,3.83
3,F11T,3.22
4,F11L,2.5
5,F11Y,3.02
6,F11K,2.68
7,F11R,2.16
8,F11E,1.63
9,F11G,2.78
10,F11I,3.63
11,F11C,3.27
12,F11D,2.15
13,F11Q,3.49
14,F11N,2
15,G6F,4.16
16,G6M,2.46
17,G6A,1.78
18,G6Y,2.48
19,G6E,3.67
20,G6Q,2.82
21,G6H,2.34
22,G6V,2.43
23,G6R,2.75
24,G6T,3.1
25,G6K,2.19
26,G6C,2.87

row,Variant,protein stability index
1,G6L,2.22
2,G6W,1.9
3,G6D,2.73
4,G6I,1.06
5,P19N,1.72
6,P19I,3.15
7,P19M,2.83
8,P19R,3.63
9,P19S,2.39
10,P19H,3.72
11,P19F,3.16
12,P19L,3.42
13,P19Q,2.6
14,P19V,3.9
15,P19Y,2.23
16,P19T,3.21
17,P19G,2.96
18,M4R,3.83
19,M4I,1.92
20,M4C,4.43
21,M4A,3.65
22,M4D,3.33
23,M4H,2.79
24,M4W,3.96
25,M4Q,2.88
26,M4P,2.72

row,Variant,protein stability index
1,M4L,2.64
2,M4N,3.52
3,M4G,2.99
4,M4Y,2.6
5,M4F,2.29
6,M4T,2.73
7,M4V,4.05
8,M4S,3.75
9,I5G,3.23
10,I5V,2.69
11,I5Y,2.65
12,I5A,2.6
13,I5Q,3.43
14,I5M,1.77
15,I5H,3.25
16,I5K,3.18
17,I5F,3.16
18,I5E,3.74
19,I5L,3.43
20,I5T,2.83
21,I5D,3.91
22,I5R,2.21
23,N20G,3.69
24,N20K,4.43
25,N20A,3.57
26,N20E,2.12

row,Variant,protein stability index
1,N20F,2.45
2,N20C,3.04
3,N20H,3.83
4,N20I,2.48
5,Q14N,3.37
6,Q14R,2.38
7,Q14H,2.02
8,Q14D,2.14
9,Q14I,2.88
10,Q14G,3.68
11,Q14T,3.67
12,Q14W,4.35
13,Q14K,3.25
14,Q14Y,3.3
15,Q14S,3.29
16,Q14A,3.31
17,Q14E,2.11
18,Q14V,3.44
19,Q14L,3.19
20,Q14F,2.86
21,T16A,2.63
22,T16S,3.65
23,T16L,1.04
24,T16N,4.04
25,T16Q,3.11
26,T16E,2.95

row,Variant,protein stability index
1,T16W,2.42
2,T16H,3.42
3,T16P,3.4
4,T16Y,3.48
5,T16I,4.14
6,F12E,2.77
7,F12H,3.17
8,F12D,2.7
9,F12S,3.48
10,F12P,4.16
11,F12L,3.53
12,F12I,2.79
13,F12Q,3.16
14,F12N,3.88
15,F12Y,3.14
16,F12A,4.95
17,F12K,2.95
18,F12V,3.31
19,F12M,2.49
20,F12W,2.48

# Variants of: B2
# Assay: as above
# Conditions: c terminus: a fixed tail appended
row,Variant,protein stability index
1,G18L,3.01
2,G18Y,2.31
3,G18V,2.09
4,E8S,2.59
5,E8I,2.98
6,G10H,1.84
7,G10T,1.83
8,F13D,1.72
9,F13T,1.91
10,Q21E,3.7
11,Q21S,2.47
12,Q21P,2.08
13,V12P,2.17
14,K11L,2.47
15,K11S,2.37
16,C6V,2.8
17,C6Q,2.28
18,C6I,2.12
19,I20G,2.38
20,I20Y,2.98
21,S14E,3.77
22,Y4E,2.15
23,Y4G,2.14
24,A17R,3.21
25,A17T,2.46
26,L19E,2.31
27,Q15T,4.01

row,Variant,protein stability index
1,Q15M,2.06
2,Q15V,2.16
3,Q15D,4.51
4,Q15Y,2.73
5,R3T,3.59
6,R3D,2.35
7,R3Y,3.52
8,R3P,2.98
9,Q1K,3.1
10,Q1Y,2.2
11,Q1N,2.32
12,Q1V,3.05
13,R24I,1.96
14,R24E,3.53
15,H5K,3.92
16,H5G,2.23
17,H5Q,3.88
18,S16L,3.59
19,S16M,3.72
20,C9P,3.04
21,C9F,2.17
22,Q23C,2.81
23,K7R,2.66
24,K7M,2.6
25,K2G,3.31
26,K2D,3.31
27,K2A,2.85
